Reference: patent publication US11175293 (UNIVERSITY OF UTAH RESEARCH FOUNDATION, dated 2021)

Biological target: T1, NanoSpike
T1 construct: also called IH4vs2-Spike
Test: flow cytometry on human whole blood, detected with FITC-conjugated anti-Strep-tag antibodies

B1: Glycophorin A (GYPA) on the surface of human red blood cells (other)
chain: LSTTEVAMHTSTSSSVTKSYISSQTNDTHKRDTYAATPRAHEVSEISVRTVYPPEEETGERVQLAHHFSEPEITLIIFGVMAGVIGTILLISYGIRRLIKKSPSDVKPLPSPDTDVPLSSVEIENPETSDQ
notes: whole, on cells; also called GPA; RBC
binding result: binds
